The test system of the assay is LRRC15-positive human osteosarcoma cell line HuO9. As to the kind of experiment: In vivo antitumor effect, HuO9 subcutaneous transplant model. The following applies: tail vein, on Day 10, female SCID mice. On the procedure: The antitumor effects of the antibody-drug conjugates were evaluated by using animal models in which cells of the human tumor cell line had been transplanted into immunodeficient mice. 4 to 6 Week-old SCID mice (CB17/Icr-Prkdc[scid]/CrlCrlj, Jackson Laboratory Japan, Inc.) were habituated for 3 days or more under SPF conditions before experimental use. The mice were fed with sterilized solid feed (FR-2, Funabashi Farms Co., Ltd.) and given sterilized tap water (prepared by adding a solution of 5 to 15 ppm sodium hypochlorite). The major and minor diameters of the transplanted tumors were measured twice a week with an electronic digital caliper ([…] Corporation), and the estimated tumor volume was calculated using the following formula. Estimated tumor volume (mm^3) = 1/2 × major diameter (mm) × [minor diameter (mm)]^2 All antibody-drug conjugates were diluted with ABS and administered into the tail vein at doses shown in each Example. In addition, ABS (vehicle) or control hIgG-PBD prepared in Reference Example 4 was administered as the control group, in a similar manner. 5 to 6 Mice were used per group in the experiment. Based on publicly known information, LRRC15-positive human osteosarcoma cell line HuO9 (JCRB) was suspended in Matrigel (Corning Incorporated), 5.0 × 10^6 cells were subcutaneously transplanted into the right flank of female SCID mice (Day 0), and random grouping was performed on Day 10. On the day of grouping, the vehicle, the antibody-drug conjugates […]-PBD, […]-V1-PBD, and […]-V2-PBD prepared in Example 5, or the control hIgG-PBD prepared in Reference Example 4 was administered at a dose of 0.4 mg/kg, and the huM25-MMAE prepared in Reference Example 5 was administered at a dose of 0.4 mg/kg or 3.6 mg/kg into the tail vein. The abscissa indicates the number of days, and the ordinate indicates estimated tumor volume, and the error bars indicate SEM values. […] The antitumor effects of the antibody-drug conjugates were evaluated by using animal models in which cells of a human tumor cell line had been transplanted into immunodeficient mice, or cells of a mouse tumor cell line had been transplanted into immunocompetent mice. 4 to 6 Week-old SCID mice (CB17/Icr-Prkdc[scid]/CrlCrlj, Jackson Laboratory Japan, Inc.), NSG mice (NOD.Cg-Prkdcscid Il2rgtm1Wjl/SzJ, Jackson Laboratory Japan, Inc.), or B6J mice (C57BL/6J, Jackson Laboratory Japan, Inc.) were habituated for 3 days or more under SPF conditions before experimental use. The mice were fed with sterilized solid feed and given sterilized tap water. The major and minor diameters of the transplanted tumors were measured twice a week with an electronic digital caliper (Mitutoyo Corporation), and the estimated tumor volume was calculated using the following formula. Estimated tumor volume (mm^3) = 1/2 × major diameter (mm) × [minor diameter (mm)]^2 All antibody-drug conjugates were diluted with ABS and administered into the tail vein at doses shown in each Example. In addition, ABS (vehicle) or control hIgG-PBD prepared in Reference Example 4 was administered as the control group, in a similar manner. 5 to 6 Mice were used per group in the experiment. Based on publicly known information, LRRC15-positive human osteosarcoma cell line HuO9 (JCRB) was suspended in Matrigel (Corning Incorporated), 5.0 × 10^6 cells were subcutaneously transplanted into the right flank of female SCID mice (Day 0), and random grouping was performed on Day 10. On the day of grouping, a vehicle, the antibody-drug conjugate […]-V1-PBD or […]-V2-PBD prepared in Example 5, or huM25-PBD prepared in Reference Example 6-2 was administered into the tail vein at a dose of 0.3 mg/kg. The abscissa indicates the number of days, and the ordinate indicates estimated tumor volume, and the error bars indicate SEM values.

[1] abbreviates: 0.4 mg/kg, huM25-MMAE at 0.4 mg/kg or 3.6 mg/kg.
Where [2] appears, read: 0.3 mg/kg, huM25-PBD at the same dose.

Numbering of substitutions follows the chain as printed.

B1: H02L01-PBD (conjugate)
heavy: EVQLVESGGGLVQPGGSLRLSCAASGFTFRDYYMAWVRQAPGKGLEWVSSIGFDESRTYYADSVKGRFTISRDDSKNTLYLQMNSLRAEDTAVYYCARHGVSYYSGDNWFAYWGQGTLVTVSSASTKGPSVFPLAPSSKSTSGGTAALGCLVKDYFPEPVTVSWNSGALTSGVHTFPAVLQSSGLYSLSSVVTVPSSSLGTQTYICNVNHKPSNTKVDKKVEPKSCDKTHTCPPCPAPEAAGGPSVFLFPPKPKDTLMISRTPEVTCVVVDVSHEDPEVKFNWYVDGVEVHNAKTKPREEQYNSTYRVVSVLTVLHQDWLNGKEYKCKVSNKALAAPIEKTISKAKGQPREPQVYTLPPSREEMTKNQVSLTCLVKGFYPSDIAVEWESNGQPENNYKTTPPVLDSDGSFFLYSKLTVDKSRWQQGNVFSCSVMHEALHNHYTQKSLSLSPGK
light: DIQMTQSPSSLSASVGDRVTITCKSSQGLLYSGDQKNYLAWYQQKPGKAPKLLIYWASTRQSGVPSRFSGSGSGTDFTLTISSLQPEDFATYYCQQYYDPPYTFGQGTKVEIKRTVAAPSVFIFPPSDEQLKSGTASVVCLLNNFYPREAKVQWKVDNALQSGNSQESVTEQDSKDSTYSLSSTLTLSKADYEKHKVYACEVTHQGLSSPVTKSFNRGEC
As to B1, under setting [1], the “antitumor effect (estimated tumor volume)” value (from here on “antitumor effect”) is “antitumor activity higher than that of the vehicle, the control hIgG-PBD, and huM25-MMAE”.

B2: H02L01-V2-PBD (conjugate)
heavy: B1 heavy with Y103R
light: B1 light
On to B2, for which the “antitumor effect” value under setting [2] was “antitumor activity higher than that of the vehicle and huM25-PBD”; the “antitumor effect” value under setting [1] was “antitumor activity higher than that of the vehicle, the control hIgG-PBD, and huM25-MMAE”. For the same molecule, the tumor regression result (0.4 mg/kg) was “lead to tumor regression”.

B3: H02L01-V1-PBD (conjugate)
heavy: B1 heavy with Y103K
light: B1 light
As to B3, the “antitumor effect” value is “antitumor activity higher than that of the vehicle and huM25-PBD” under setting [2]; “antitumor activity higher than that of the vehicle, the control hIgG-PBD, and huM25-MMAE” under setting [1]. For the same molecule, for the setting “0.4 mg/kg”, the tumor regression entry is “lead to tumor regression”.

Values taken from patent EP4703474A1, “ANTI-LRRC15 ANTIBODY” (priority 2023, dated 2024).
